The record followed here is publication doi:10.1101/797027.

The target of the experiment is hRpn10^322–366 peptide with Y326 phosphorylated (human) (UniProt P55036). The experiment in a line: ITC. In general terms: ITC needs no label: the signal is the heat of the interaction.

Sequence of E6AP AZUL domain, E6AP[24–87] (Q05086 24-87): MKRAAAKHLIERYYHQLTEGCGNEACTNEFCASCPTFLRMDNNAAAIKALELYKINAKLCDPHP

In turn, “E6AP AZUL domain, E6AP[24–87] (from UniProt Q05086 24-87) (domain or fragment)” had a fold reduction of affinity against unphosphorylated hRpn10^322–366 of 10 fold.
